In publication PMC12442371:

Biological target: IbcK (isobutylene catabolism gene K product), epoxide hydrolase from Mycolicibacterium sp. ELW1 (Mycolicibacterium sp. ELW1)
Test: SEC; Biosep-SEC S3000 column on UPLC, 10 mM Tris-HCl pH 7, 150 mM NaCl, 0.3 mL/min, 10 µL injected; two peaks, dimer to monomers

- stoichiometry N: 2
Substance: IbcK (isobutylene catabolism gene K product), epoxide hydrolase from Mycolicibacterium sp. ELW1 (enzyme)
